The text below walks through data of article PMC2680549 (Nature structural & molecular biology, 2008).

Series [1] deals with the molecule itself. Description: AUC.
For series [2], the target named is Hsc70 nucleotide binding domain (human Hsc70 1-381) (human, UniProt P11142 1-381). The experiment in a line: pull-down.
Series [3] deals with the molecule itself. The experiment in a line: AUC. The source holds these as a separate data set.

Chain of Hsc70 nucleotide binding domain (human Hsc70 1-381) (P11142 1-381): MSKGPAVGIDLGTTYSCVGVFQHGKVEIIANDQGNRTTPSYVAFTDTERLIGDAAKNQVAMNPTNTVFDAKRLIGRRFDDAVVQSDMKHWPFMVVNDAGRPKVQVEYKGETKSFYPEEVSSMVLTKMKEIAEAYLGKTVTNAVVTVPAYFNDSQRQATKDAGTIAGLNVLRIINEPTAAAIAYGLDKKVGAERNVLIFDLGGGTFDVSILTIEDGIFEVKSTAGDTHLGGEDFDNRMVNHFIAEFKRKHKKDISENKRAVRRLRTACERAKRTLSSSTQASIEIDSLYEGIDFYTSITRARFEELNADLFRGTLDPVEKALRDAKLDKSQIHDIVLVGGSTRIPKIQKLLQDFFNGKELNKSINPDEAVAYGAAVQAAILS

B1: Mouse Bag2-BNB (murine Bag2 107-189) (domain or fragment, UniProt Q91YN9 107-189, looked up)
chain: EESLKHATRIIDEVVSKFLDDLGNAKSHLMSLYSACSSEVPPGPVDQKFQSIVIGCALEDQKKIKRRLETLLRNIDNSDKAIK
With B1, in series [1], the Kd – broadly, the free concentration of one partner at which half of the binding sites on the other are occupied at equilibrium, for simple one-to-one binding – stood at 4.5 ± 2 µM.

B2: GST-fused full-length human Bag2, wild type (natural protein, UniProt O95816 1-211, looked up)
chain: MAQAKINAKANEGRFCRSSSMADRSSRLLESLDQLELRVEALREAATAVEQEKEILLEMIHSIQNSQDMRQISDGEREELNLTANRLMGRTLTVEVSVETIRNPQQQESLKHATRIIDEVVNKFLDDLGNAKSHLMSLYSACSSEVPHGPVDQKFQSIVIGCALEDQKKIKRRLETLLRNIENSDKAIKLLEHSKGAGSKTLQQNAESRFN
For the molecule B2, the binding result in series [2] is listed as “binds”.

B3: Near full-length murine Bag2 (Bag2 21-210) (domain or fragment, mouse, UniProt Q91YN9 21-210, looked up)
chain: MADRSSRLLESLDQLELRVEALRDAATAVEQEKEILLEMIHSIQNSQDMRQISDGEREELNLTANRLMGRTLTVEVSVETIRNPQQEESLKHATRIIDEVVSKFLDDLGNAKSHLMSLYSACSSEVPPGPVDQKFQSIVIGCALEDQKKIKRRLETLLRNIDNSDKAIKLLEHAKGAGSKSLQNTDGKFN
Regarding B3, the stoichiometry N (usually a count of units in the complex or per binding partner) in series [3] is at least 4.
